Laboratory results from publication PMC12628836, “Lactobacillus rhamnosus YQ001 binds with GII.4 human noroviruses and inhibits viral replication in zebrafish larvae” (Applied and Environmental Microbiology, 2025).

Target: recombinant C2JX39 (DNA topoisomerase 4 subunit A) (Lactobacillus rhamnosus YQ001)
Assay: ELISA; attachment factors coated at 280.0 pmol/mL in carbonate-bicarbonate buffer overnight at 4 C, blocked with 1.0% BSA; P protein (GI.1 or GII.4) 10.0 ug/mL, 1 h at 37 C; detected with anti-HuNoV monoclonal antibodies; positive when S/N >= 2.0
Conditions: both partners purified

B1: GII.4 HuNoV P protein (domain or fragment)
chain: KPFTVPILTVEEMTNSRFPIPLEKLFTGPSGAFVVQPQNGRCTTDGVLLGTTQLSPVNICTFRGDVTHIAGSRNYTMNLASLNWNNYDPTEEIPAPLGTPDFVGKIQGLLTQTTKGDGSTRGHKATVYTGSAPFTPKLGSVQFSTDTENDFETHQNTKFTPVGVIQDGSTTHRNEPQQWVLPSYSGRNVHNVHLAPAVAPTFPGEQLLFFRSTMPGCSGYPNMDLDCLLPQEWVQHFYQEAAPAQSDVALLRFVNPDTGRVLFECKLHKSGYVTVAHTGQHDLVIPPNGYFRFDSWVNQFYTLAPM
With B1 the S/N ratio was 16.9.
